Measurements published in patent US20030203372A1, “Analysis method” (priority 2000, published 2003).

How the values were obtained:
[1] = tested on: human macrophages; assay: Custom gene array, macrophages with no cytokines, IL-10 or LPS + IFN, in normoxia and hypoxia; format: cell-based; settings: Table 15, referenced to the median value of that gene throughout all 6 conditions; for mRNA EXPRESSION (experimental condition) #1: #1 no cytokines/normoxia; for mRNA EXPRESSION (experimental condition) #2: #2 no cytokines/hypoxia; for mRNA EXPRESSION (experimental condition) #3: #3 IL-10/normoxia; for mRNA EXPRESSION (experimental condition) #4: #4 IL-10/hypoxia; for mRNA EXPRESSION (experimental condition) #5: #5 LPS/IFN/normoxia; for mRNA EXPRESSION (experimental condition) #6: #6 LPS/IFN/hypoxia
Method in brief: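 Cultured macrophages were left untreated or given IL-10 or LPS + IFN, each at 100 ng/ml final, for 6 hr under normoxia or hypoxia (0.1% oxygen). Six conditions in total.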

[2] = tested on: primary human cell cultures (11 cell types); assay: Custom gene array, 11 human cell types in normoxia or hypoxia for 6 hr and 18 hr; format: cell-based; settings: hypoxia/normoxia induction ratio; 18 hr monocyte
Method in brief: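 Values are each gene's expression relative to its median over all cell types and conditions, after per-array normalisation to control genes and merging of replicate arrays. Cells were 11 human types, mostly unmodified primary cultures, kept in normoxia or exposed to hypoxia for 6 hr or 18 hr.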

[3] = tested on: human breast and ovary tumors; assay: Custom gene array, breast and ovary tumors versus normal adjacent tissue; settings: for gene expression level on custom gene array, Breast nor H / gene expression level on custom gene array, Breast nor K / gene expression level on custom gene array, Ovary nor E / gene expression level on custom gene array, Ovary nor F / gene expression level on custom gene array, Ovary nor G: normal adjacent tissue; for gene expression level on custom gene array, Breast nor H / gene expression level on custom gene array, Breast tum H: patient H; for gene expression level on custom gene array, Breast nor K / gene expression level on custom gene array, Breast tum K: patient K; for gene expression level on custom gene array, Breast tum H / gene expression level on custom gene array, Breast tum K / gene expression level on custom gene array, Ovary tum E / gene expression level on custom gene array, Ovary tum F / gene expression level on custom gene array, Ovary tum G: tumor tissue; for gene expression level on custom gene array, Ovary nor E / gene expression level on custom gene array, Ovary tum E: patient E; for gene expression level on custom gene array, Ovary nor F / gene expression level on custom gene array, Ovary tum F: patient F; for gene expression level on custom gene array, Ovary nor G / gene expression level on custom gene array, Ovary tum G: patient G
From the text: A study has been performed to examine the expression of these genes in a selection of breast and ovary tumors, comparing expression with normal adjacent tissue from the same patient. There is expected to be a large degree of variation between different patients, and the study here contains only 5 patients with a range of diagnoses.
Patients are designated as Letters:
E: person. Diagnosis: ovarian adenocarcinoma. Normal ovarian tissue derived from an age-matched separate individual.
: person. Diagnosis: poorly differentiated adenocarcinoma. Normal ovarian tissue derived from the same individual.
G: person. Diagnosis: moderately-differentiated adenocarcinoma. Normal ovarian tissue derived from the same individual.
H: person. Diagnosis: invasive ductal carcinoma. Normnal breast tissue derived from the same individual.
K: person. Diagnosis: invasive ductal carcinoma. Normal breast tissue derived from the same individual.
Data normalisation was done per-chip to correct for differences in labelling and hybridization efficiency. Per-gene normalisation was done such that the expression values of each gene are relative to the median value of that gene throughout the series of samples. By comparing the expression values under normal (nor) and tumor (turn) for a single patient, differences in expression between the normal and malignant tissue of that patient can be inferred.

Molecule | mRNA EXPRESSION (experimental condition) #1 [1] | mRNA EXPRESSION (experimental condition) #2 [1] | mRNA EXPRESSION (experimental condition) #3 [1] | mRNA EXPRESSION (experimental condition) #4 [1] | mRNA EXPRESSION (experimental condition) #5 [1] | mRNA EXPRESSION (experimental condition) #6 [1] | gene expression level on custom gene array, Breast nor H ([3]; Table 19) | gene expression level on custom gene array, Breast nor K ([3]; Table 19) | gene expression level on custom gene array, Breast tum H ([3]; Table 19) | gene expression level on custom gene array, Breast tum K ([3]; Table 19) | gene expression level on custom gene array, Ovary nor E ([3]; Table 19) | gene expression level on custom gene array, Ovary nor F ([3]; Table 19) | gene expression level on custom gene array, Ovary nor G ([3]; Table 19) | gene expression level on custom gene array, Ovary tum E ([3]; Table 19) | gene expression level on custom gene array, Ovary tum F ([3]; Table 19) | gene expression level on custom gene array, Ovary tum G ([3]; Table 19) | further results
p1F6 (nucleic acid, listed as Homo Sapiens) DNA: GTCCATCTTGCTGCTGTCCACTTTGGGTTCCATCTTGGGCTCCATCTTGCTCTCACGATTAAAAGCTTCTTTCCTGCTTTCCCCATTCCGACCATCATTTGCACCCCGGTTCTCCCCATGCCGGCCTGCGCTTCCTCCATGTCTGTTCTCCCCGTGCCGATGGCCATCAGTATGACGGCTGCTGCTTTCTGGATGGCGGTATCCATCTCCATGGCGACCACCATCTCCGTGACGTGGACTATCGCTATGCCGATTGCCAGTCTCTCCGTGACTGTGACGGCTGCTGCCCCGGTTCTCAGTATATCTCTCTCTTTTCCCGTTGCTGCCCCCAGTCCCTTCTCGGCTGTTATTCCCTGAAGCTGTGTTGTTGACTCCTTGGGCTCCGGCAGACGGGTAGGTCACAGGGGCACCACTGATGTTGCCAGTATTGCCAAAGCCTGGGATGCCCTTGGCGGCACTGGTGACGGGGCTGTCAGGACTGTTATGGCCCTGTTGTGCTGAGTTAGTTGGAACAGAATTCAAGCTCCCTGCACTAGTCCACCTGCCCCACTGCTTCTTCGCTTCTCTCTTGGAAAGTCCAGTCTCTCCTCGGCTTGCAATGGACCCCAACTGCTCCTGCGCCGCTGGTGTCTCCTGCACCTGCGCTGGTTCCTGCAAGTGCAAAGAGTGCAAATGCACCTCCTGCAAGAAGAGCTGCTGCTCCTGCTGCCCCGTGGGCTGTAGCAAGTGTGCCCAGGGCTGTGTTTGCAAAGGGGCGTCAGAGAAGTGCAGCTGCTGCGACTGATGCCAGGACAACCTTTCTCCCAGATGTAAACAGAGAGACATGTACAAACCTGGATTTTTTTTTTATACCACCTTGACCCATTTGCTACATTCCTTTTCCTGTGAAATATGTGAGTGATAATTAAACACTTTAGACCTGAAAAAAAAAAAAAAAAAAAAAAAAAAAAAAAAAAAAAAAAAAAAAAAAAAAAAAAAAAAAAAAAAAAAAAAAAAAAAAAAAAAAAAAAAAAAAAAAAAAAAAAAAAAAAAAAAAAAAAAAAAAAAAAAAAAAAAAAAAAAAAAAAAAAA | 0.44 | 1.08 | 0.47 | 1.06 | 1.11 | 2.47 | – | – | – | – | – | – | – | – | – | – | HIGHEST FOLD CHANGE IN HYPOXIA (hr hypoxia + cell type) [2]: 67.4 (18 hr monocyte) fold
p1F17 (nucleic acid, listed as Homo Sapiens) DNA: CAGCCTTATAAGCTGAGGGAGTGGAGAGGCCCGGGGCCAGGAAAGCAGAGACAGACAAAGCGTTAGGAGAAGAAGAGAGGCAGGGAAGACAAGCCAGGCACGATGGCCACCTTCCCACCAGCAACCAGCGCCCCCCAGCAGCCCCCAGGCCCGGAGGACGAGGACTCCAGCCTGGATGAATCTGACCTCTATAGCCTGGCCCATTCCTACCTCGGAGGTGGAGGCCGGAAAGGTCGCACCAAGAGAGAAGCTGCTGCCAACACCAACCGCCCCAGCCCTGGCGGGCACGAGAGGAAACTGGTGACCAAGCTGCAGAATTCAGAGAGGAAGAAGCGAGGGGCACGGCGCTGAGACAGAGCTGGAGATGAGGCCAGACCATGGACACTACACCCAGCAATAGAGACGGGACTGCGGAGGAAGGAGGACCCAGGACAGGATCCAGGCCGGCTTGCCACACCCCCCACCCCTAGGACTTATTCCCGCTGACTGAGTCTCTGAGGGGCTACCAGGAAAGCGCCTCCAACCCTAGCAAAAGTGCAAGATGGGGAGTGAGAGGCTGGGAATGGAGGGGCAGAGCCAGGAAGATCCCCCAGAAAAGAAAGCTACAGAAGAAACTGGGGCTCCTCCAGGGTGGCAGCAACAATAAATAGACACGCACGGCAGCCACAGCTTGGGTGTGTGTTCATCCTTGTTAAAAAAAAAAAAAAAAAAAAAAAAAA | 0.26 | 1.78 | 0.16 | 0.88 | 1.16 | 2.59 | 1.00 | 0.92 | 0.97 | 1.33 | 1.18 | 1.27 | 0.55 | 0.17 | 1.47 | 1.79 | gene expression level on custom gene array, Breast nor H ([3]; Table 18): 1.00; gene expression level on custom gene array, Breast nor K ([3]; Table 18): 0.92; gene expression level on custom gene array, Breast tum H ([3]; Table 18): 0.97; gene expression level on custom gene array, Breast tum K ([3]; Table 18): 1.33; gene expression level on custom gene array, Ovary nor E ([3]; Table 18): 1.18; gene expression level on custom gene array, Ovary nor F ([3]; Table 18): 1.27; gene expression level on custom gene array, Ovary nor G ([3]; Table 18): 0.55; gene expression level on custom gene array, Ovary tum E ([3]; Table 18): 0.17; gene expression level on custom gene array, Ovary tum F ([3]; Table 18): 1.47; gene expression level on custom gene array, Ovary tum G ([3]; Table 18): 1.79
p1K8 (nucleic acid, listed as Homo Sapiens) DNA: AGCACAGGACACAGCTGGGTTCTGAAGCTTCTGAGTTCTGCAGCCTCACCTCTGAGAAAACCTCTTTTCCACCAATACCATGAAGCTCTGCGTGACTGTCCTGTCTCTCCTCATGCTAGTAGCTGCCTTCTGCTCTCCAGCGCTCTCAGCACCAATGGGCTCAGACCCTCCCACCGCCTGCTGCTTTTCTTACACCGCGAGGAAGCTTCCTCGCAACTTTGTGGTAGATTACTATGAGACCAGCAGCCTCTGCTCCCAGCCAGCTGTGGTATTCCAAACCAAAAGAAGCAAGCAAGTCTGTGCTGATCCCAGTGAGACCTGGGTCCAGGAGTACGTGTATGACCTGGAACTGAACTGAGCTGCTCAGAGACAGGAAGTCTTCAGGGAAGGTCACCTGAGCCCGGATGCTTCTCCATGAGACACATCTCCTCCATACTCAGGACTCCTCTCCGCAGTTCCTGTCCCTTCTCTTAATTTAATCTTTTTTATGTGCCGTGTTATTGTATTAGGTGTCATTTCCATTATTTATATTAGTTTAGCCAAAGGATAAGTGTCCCCTATGGGGATGGTCCACTGTCACTGTTTCTCTGCTGTTGCAAATACATGGATAACACATTTGATTCTGTGTGTTTTCATAATAAAACTTTAAAATAAAATGCAGACAGTT | 0.82 | 0.40 | 1.15 | 0.38 | 91.4 | 68.4 | 1.94 | 1.75 | 0.68 | 1.62 | 1.00 | 2.48 | 1.94 | 0.56 | 2.29 | 0.54 | –
